From patent US20250289893A1 (OXFORD UNIVERSITY INNOVATION, published 2025)

Assays:
[1] = target: T1, chimeric CD1a pool B protein [human CD1a lipid binding domain, mouse CD1d Ig domain] (human; mouse, UniProt P06126 18-201; P11609 205-297, limits assumed); test: ELISA, 0.1 µg/ml antibody
Description: (§1) CD1a-specific antibodies were identified by ELISA. […] 20 μl/well of peroxidase-conjugated goat anti-species IgG Fc-specific F(ab′)2 fragment (Jackson ImmunoResearch), diluted 1:5000 in block buffer was added and incubated at room temperature for 1 hour, followed by washing with wash buffer.
(§2) The antibodies were titrated through a dilution series and compared to a control rabbit IgG antibody. […] Data shown for purified antibodies.

[2] = target: T2, human CD1a expressed on cells (human, UniProt P06126 17-327; P61769 21-119); test: flow cytometry, MOLT4 cells, 10 µg/ml antibody
T2 construct: also called HEK - CD1a; C1R - CD1a
Description: (§3) CD1a-specific antibodies were identified by flow cytometry. Binding to proteins expressed on HEK, C1R and MOLT4 cell lines was assessed. […] The C1R-CD1a, C1R-empty vector and MOLT4 cell lines were washed in 1×PBS on the day required. All cell lines were counted and resuspended in 1×PBS and then stained for 30 minutes at 37° C. using the DiI or DiO cellular stains (Invitrogen). Cells were washed with flow cytometry buffer (1% bovine serum albumin, 2 mM EDTA and 0.1% sodium azide in PBS) before mixing 2 DiI-stained and DiO-stained populations together. The cells (20 μl/well) were then added to dilutions of antibody sample (B cell culture supernatant, TAP supernatant, clone supernatant, purified antibody solution) (20 μl/well) and incubated for 1 hour at 4° C. in a flow cytometry assay plate, before being washed with flow cytometry buffer. 10 μl/well of Alexafluor647-conjugated goat anti-species IgG Fc-specific F(ab′)2 fragment (Jackson ImmunoResearch), diluted 1:2500 in flow cytometry buffer, was added and incubated at 4° C. for 30 minutes, followed by washing with wash buffer. The fluorescence intensity was then measured on an iQue screener PLUS.
(§4) Binding was quantified as fold change in fluorescence intensity geomean over background assessed by flow cytometry.

[3] = target: T3, human CD1c expressed on HEK-293 cells (human, UniProt P29017 18-333; P61769 21-119); test: flow cytometry, HEK-293 cells, 3.16 µg/ml antibody
T3 construct: also called HEK - CD1c
Description: (§5) Binding to proteins expressed on HEK, C1R and MOLT4 cell lines was assessed. […] The C1R-CD1a, C1R-empty vector and MOLT4 cell lines were washed in 1×PBS on the day required. All cell lines were counted and resuspended in 1×PBS and then stained for 30 minutes at 37° C. using the DiI or DiO cellular stains (Invitrogen). Cells were washed with flow cytometry buffer (1% bovine serum albumin, 2 mM EDTA and 0.1% sodium azide in PBS) before mixing 2 DiI-stained and DiO-stained populations together. The cells (20 μl/well) were then added to dilutions of antibody sample (B cell culture supernatant, TAP supernatant, clone supernatant, purified antibody solution) (20 μl/well) and incubated for 1 hour at 4° C. in a flow cytometry assay plate, before being washed with flow cytometry buffer. 10 μl/well of Alexafluor647-conjugated goat anti-species IgG Fc-specific F(ab′)2 fragment (Jackson ImmunoResearch), diluted 1:2500 in flow cytometry buffer, was added and incubated at 4° C. for 30 minutes, followed by washing with wash buffer. The fluorescence intensity was then measured on an iQue screener PLUS.
(§6) HEK-293 cells were transiently transfected with human CD1a, CD1b, CD1c or CD1d and co-transfected with human β2M.

[4] = target: T4, human CD1b expressed on HEK-293 cells (human, UniProt P29016 18-333; P61769 21-119); test: flow cytometry, HEK-293 cells, 3.16 µg/ml antibody
T4 construct: also called HEK - CD1b
Description: as §5, §6

[5] = target: T5, human CD1d expressed on HEK-293 cells (human, UniProt P15813 20-335; P61769 21-119); test: flow cytometry, HEK-293 cells, 3.16 µg/ml antibody
T5 construct: also called HEK - CD1d
Description: as §5, §6

[6] = target: T2, human CD1a expressed on cells; test: flow cytometry, HEK-293 cells, 3.16 µg/ml antibody
Description: as §5, §6

[7] = target: T6, human CD1a protein (pool B) (human, UniProt P06126 18-295, limits assumed); test: ELISA, 100 µg/ml antibody
T6 construct: Recombinant protein of the ELISA (coated) and the Biacore T200 titration; whole entry named; also called human CD1a pool B; full length CD1a
T6 sequence (P06126 18-295 limits assumed): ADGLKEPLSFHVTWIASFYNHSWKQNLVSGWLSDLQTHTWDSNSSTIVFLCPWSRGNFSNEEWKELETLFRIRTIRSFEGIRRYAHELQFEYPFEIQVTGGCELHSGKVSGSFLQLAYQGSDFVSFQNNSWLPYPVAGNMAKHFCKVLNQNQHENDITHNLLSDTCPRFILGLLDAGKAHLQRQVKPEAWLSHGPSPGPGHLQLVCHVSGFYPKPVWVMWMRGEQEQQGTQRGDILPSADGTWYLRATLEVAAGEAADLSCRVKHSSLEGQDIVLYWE
Description: as §1
(§7) The antibodies were titrated through a dilution series and compared to a control rabbit IgG antibody.

[8] = target: T3, human CD1c expressed on HEK-293 cells; test: flow cytometry, HEK-293 cells, 10 µg/ml antibody
Description: as §5, §6

[9] = target: T4, human CD1b expressed on HEK-293 cells; test: flow cytometry, HEK-293 cells, 10 µg/ml antibody
Description: as §5, §6

[10] = target: T5, human CD1d expressed on HEK-293 cells; test: flow cytometry, HEK-293 cells, 10 µg/ml antibody
Description: as §5, §6

[11] = target: T2, human CD1a expressed on cells; test: flow cytometry, HEK-293 cells, 10 µg/ml antibody
Description: as §5, §6

[12] = target: T2, human CD1a expressed on cells; test: flow cytometry, MOLT4 cells, 31.6 µg/ml antibody
Description: as §3, §4

[13] = target: Chinese variant CD1a protein (human) (UniProt P06126); test: ELISA, 1 µg/ml antibody
Sequence of Chinese variant CD1a protein (human) (P06126 18-295, change not shown): as the sequence (P06126 18-295 limits assumed) above

[14] = target: T2, human CD1a expressed on cells; test: flow cytometry, MOLT4 cells, 0.1 µg/ml antibody
Description: as §3, §4

[15] = target: T2, human CD1a expressed on cells; test: flow cytometry, C1R cells, 10 µg/ml antibody
Description: as §5, §4

[16] = target: T1, chimeric CD1a pool B protein [human …; test: ELISA, 1 µg/ml antibody
Description: as §1, §2

[17] = target: T6, human CD1a protein (pool B); test: ELISA, 10 µg/ml antibody
Description: as §1, §7

[18] = target: T2, human CD1a expressed on cells; test: flow cytometry, MOLT4 cells, 0.316 µg/ml antibody
Description: as §3, §4

[19] = target: T7, Cynomolgus monkey CD1a protein (Cynomolgus monkey); test: ELISA, 1 µg/ml antibody
T7 chain: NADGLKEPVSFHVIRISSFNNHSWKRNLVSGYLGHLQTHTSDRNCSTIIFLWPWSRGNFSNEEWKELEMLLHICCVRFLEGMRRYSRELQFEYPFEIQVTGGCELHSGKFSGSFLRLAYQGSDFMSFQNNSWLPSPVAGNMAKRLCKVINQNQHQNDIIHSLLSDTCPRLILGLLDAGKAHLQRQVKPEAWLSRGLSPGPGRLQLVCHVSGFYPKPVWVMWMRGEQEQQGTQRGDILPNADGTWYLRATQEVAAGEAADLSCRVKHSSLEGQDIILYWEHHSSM

[20] = target: T2, human CD1a expressed on cells; test: flow cytometry, C1R cells, 1 µg/ml antibody
Description: as §5, §4

[21] = target: T6, human CD1a protein (pool B); test: ELISA, 1 µg/ml antibody
Description: as §1, §7

[22] = target: T2, human CD1a expressed on cells; test: flow cytometry, C1R cells, 0.1 µg/ml antibody
Description: as §5, §4

[23] = target: T2, human CD1a expressed on cells; test: flow cytometry, C1R cells, 0.316 µg/ml antibody
Description: as §5, §4

[24] = target: T2, human CD1a expressed on cells; test: flow cytometry, C1R cells, 100 µg/ml antibody
Description: as §5, §4

[25] = target: T6, human CD1a protein (pool B); test: ELISA, 31.6 µg/ml antibody
Description: as §1, §7

[26] = target: T7, Cynomolgus monkey CD1a protein; test: ELISA, 0.1 µg/ml antibody

T1 sequence (P06126 other isoform, or with tags, fused parts or gaps mutant limits assumed): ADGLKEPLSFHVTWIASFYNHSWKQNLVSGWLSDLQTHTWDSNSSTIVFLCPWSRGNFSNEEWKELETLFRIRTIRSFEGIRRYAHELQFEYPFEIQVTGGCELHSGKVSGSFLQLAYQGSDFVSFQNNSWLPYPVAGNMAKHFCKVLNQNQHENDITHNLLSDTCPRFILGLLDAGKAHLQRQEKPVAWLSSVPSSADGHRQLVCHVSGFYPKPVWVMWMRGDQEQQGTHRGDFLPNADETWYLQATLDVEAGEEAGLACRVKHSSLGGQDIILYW

B1: 77A (VR11851) (antibody, V domains shown)
VH: QSVEESGGRLVTPGTPLTLTCTVSGFSLSSYAMSWVRQAPGKGLEWIGIISSSGTTYYASWAKGRFTISKTSTTVDLKITSPTTEDTATYFCARVDYYSSGWGGLWGPGTLVTVSS
VL: AVEMTQTPASMSAAVGGTVTIKCQASEDIYSNLAWYQQKPGQPPKLLIYGASTLASGVPSRFKGSGSGTEYTLTISGVQCDDAATYYCQCTYDTSSYGNTFGGGTEMVVE
notes: also called OX77a; antibody 77a
[1]
  Optical Density (OD): 1.25 OD
[2]
  Fluorescence Intensity Geomean (normalized to background): 4.1 fold over background
[3]
  Fluorescence Intensity Geomean (normalized to background): 0.9 fold over background
[4]
  Fluorescence Intensity Geomean (normalized to background): 0.9 fold over background
[5]
  Fluorescence Intensity Geomean (normalized to background): 0.9 fold over background
[6]
  Fluorescence Intensity Geomean (normalized to background): 23.3 fold over background
[7]
  Optical Density (OD): 1.39 OD
[8]
  Fluorescence Intensity Geomean (normalized to background): 0.9 fold over background
[9]
  Fluorescence Intensity Geomean (normalized to background): 1.1 fold over background
[10]
  Fluorescence Intensity Geomean (normalized to background): 1 fold over background
[11]
  Fluorescence Intensity Geomean (normalized to background): 13.7 fold over background
[12]
  Fluorescence Intensity Geomean (normalized to background): 2.2 fold over background
[13]
  Optical Density (OD): 0.78 OD
[14]
  Fluorescence Intensity Geomean (normalized to background): 12.4 fold over background
[15]
  Fluorescence Intensity Geomean (normalized to background): 2.3 fold over background
[16]
  Optical Density (OD): 1.26 OD
[17]
  Optical Density (OD): 1.34 OD
[18]
  Fluorescence Intensity Geomean (normalized to background): 15.2 fold over background
[19]
  Optical Density (OD): 0.43 OD
[20]
  Fluorescence Intensity Geomean (normalized to background): 10.3 fold over background
[21]
  Optical Density (OD): 1.34 OD
[22]
  Fluorescence Intensity Geomean (normalized to background): 16.4 fold over background
[23]
  Fluorescence Intensity Geomean (normalized to background): 19 fold over background
[24]
  Fluorescence Intensity Geomean (normalized to background): 0.9 fold over background
[25]
  Optical Density (OD): 1.28 OD
[26]
  Optical Density (OD): 0.24 OD

B2: 110 (VR12112) (antibody, V domains shown)
VH: QSVEESGGRLVTPGTPLTLTCTVSGFSLSSYAMIWVRQAPGKGLEWIGIINSSDNTHYATWAKGRFTISKTSTTVDLKITSPTTEDTATYFCARDPYDYGYGWYFDLWGPGTLVTVSS
VL: AQVLTQTPSPVSAAVGGTVTINCQASQSVFNNKNLAWYQQKPGQPPKLLIYKASTLASGVSSRFKGSGSGTQFALTISGVQCDDAATYYCQGEFSCSSTDCVTFGGGTEVVVK
notes: also called OX110; antibody 110
[1]
  Optical Density (OD): 1.02 OD
[2]
  Fluorescence Intensity Geomean (normalized to background): 14.7 fold over background
[3]
  Fluorescence Intensity Geomean (normalized to background): 1.1 fold over background
[4]
  Fluorescence Intensity Geomean (normalized to background): 1.1 fold over background
[5]
  Fluorescence Intensity Geomean (normalized to background): 1 fold over background
[6]
  Fluorescence Intensity Geomean (normalized to background): 31.5 fold over background
[7]
  Optical Density (OD): 1.23 OD
[8]
  Fluorescence Intensity Geomean (normalized to background): 1 fold over background
[9]
  Fluorescence Intensity Geomean (normalized to background): 1.1 fold over background
[10]
  Fluorescence Intensity Geomean (normalized to background): 1 fold over background
[11]
  Fluorescence Intensity Geomean (normalized to background): 15.7 fold over background
[12]
  Fluorescence Intensity Geomean (normalized to background): 7.5 fold over background
[13]
  Optical Density (OD): 1.79 OD
[14]
  Fluorescence Intensity Geomean (normalized to background): 16.8 fold over background
[15]
  Fluorescence Intensity Geomean (normalized to background): 8.3 fold over background
[16]
  Optical Density (OD): 1.45 OD
[17]
  Optical Density (OD): 1.28 OD
[18]
  Fluorescence Intensity Geomean (normalized to background): 27.1 fold over background
[19]
  Optical Density (OD): 0.94 OD
[20]
  Fluorescence Intensity Geomean (normalized to background): 28.2 fold over background
[22]
  Fluorescence Intensity Geomean (normalized to background): 25.8 fold over background
[23]
  Fluorescence Intensity Geomean (normalized to background): 29.7 fold over background
[24]
  Fluorescence Intensity Geomean (normalized to background): 4.8 fold over background
[25]
  Optical Density (OD): 1.24 OD
[26]
  Optical Density (OD): 0.53 OD
